Here are results for one substance from paper PMC10460880, “Cathepsin K‐Activated Probe for Fluoro‐Photoacoustic Imaging of Early Osteolytic Metastasis” (Advanced Science, 2023).

Data set [1] in a line: Renal clearance efficiency study. Format: in vivo, BALB/c nude mice. As to conditions: mice, i.v. 50 μM, 200 μL; urine, UV absorbance at 615 nm; n = 3. How it is done:
Bone marrow toxicity analysis. The bone marrow toxicity of CTSK-APPA and CTSK-APP was assessed by blood analyses in mice. SPF grade 4-week-old BALB/c nude mice were intravenously injected with CTSK-APPA(50 μM, 200 μL) or saline (200 μL). The blood samples were collected in anticoagulant tubes at 24 h post-injection and stored at 4°C. The red blood count (RBC) and white blood count (WBC) were further measured.
Renal clearance efficiency studies. SPF grade 4-week-old BALB/c nude mice were intravenously injected with CTSK-APPA or CTSK-APP (50 μM, 200 μL) and placed in metabolic cages. The urine was collected at 3, 6, and 24 h post-injection, and then centrifuged at 5000 r.p.m. for 5 min. The supernatants containing excreted probes were quantified by using a UV-vis absorption spectrometer. […]
In vivo Bioluminescence, DR, CT, and MR imaging. […] Then BL imaging was recorded on an IVIS Spectrum imaging system at 10 min post-injection under anesthesia using isoflurane. All data were analyzed with the Living Image software. DR, CT, and MR imaging were recorded on an IVIS Spectrum imaging system, a single-photon emission computed tomography imaging system, and a preclinical magnetic resonance solution system, respectively.
Real-time tumor imaging. […] Fluorescence and PA images were acquired at 0, 1, 2, 4, 8, 12, and 24 h post-injection. […]
Histology. […] Images were captured by using a fluorescence microscope. […]

Data set [2] relates to CTSK-overexpressing OCs on calf bone slice. Put plainly: In vitro bone resorption imaging assay. It is filed as cell-based, C57BL/6J mice. As to conditions: probe 5 μM, 37 °C, 2 h; Ex 660 nm, Em 710 nm; n = 3. How it is done: PS. RAW 264.7 cells and BMMs were maintained in an atmosphere of 5% CO2 and 95% humidified air at 37 °C. The medium was changed every day.
Cell cytotoxicity assay. MDA-MB-231/Luc and RAW 264.7 cells were seeded in 96-well plates (5×10^3 cells per well) for 24 h and then incubated with CTSK-APPA or CTSK-APP (5, 10, 20, 50 μM) or saline for 24 h. The medium was removed and cells were incubated with CCK-8 (0.5 mg/mL) for another 1 h. The absorbance of the mixture at 450 nm was measured by using a microplate reader. Cell viability was expressed by the ratio of the absorbance of the cells incubated with the probes to that of the cells incubated with culture medium only.
In vitro osteoclast differentiation. Bone marrow-derived macrophages were isolated from the femurs and tibias of 4-week-old C57BL/6J mice and cultured in a complete medium containing M-CSF (30 ng/mL) for 4 days. BMMs were harvested to the 24-well plates (1×10^4 per well) and cultured in the complete medium containing M-CSF (30 ng/mL) and RANKL (100 ng/mL) for another 4 days. The osteoclasts were fixed and stained by using acid phosphatase and a leukocyte kit according to the manufacturer’s procedures.
In vitro bone resorption imaging assay. […]
Fluorescence images were captured by using the IVIS Spectrum imaging system with excitation […]

On to Cbz‐Leu‐Arg‐OH [CTSK-APPA], for which, in data set [1], the “renal clearance efficiency 24 h post-injection” value is 58.4%. The “NIR fluorescence of bone-resorption slice vs normal bone slices” value in data set [2] is reported as “stronger NIR fluorescence signal”.
